# B1: iTEP112-IBD (designed binder)
# chain: GVLPGVGGVLPGVGGVLPGVGGVLPGVGGVLPGVGGVLPGVGGVLPGVGGVLPGVGGVLPGVGGVLPGVGGVLPGVGGVLPGVGGVLPGVGGVLPGVGGVLPGVGGVLPGVGGVLPGVGGVLPGVGGVLPGVGGVLPGVGGVLPGVGGVLPGVGGVLPGVGGVLPGVGGVLPGVGGVLPGVGGVLPGVGGVLPGVGGVLPGVGGVLPGVGGVLPGVGGVLPGVGGVLPGVGGVLPGVGGVLPGVGGVLPGVGGVLPGVGGVLPGVGGVLPGVGGVLPGVGGVLPGVGGVLPGVGGVLPGVGGVLPGVGGVLPGVGGVLPGVGGVLPGVGGVLPGVGGVLPGVGGVLPGVGGVLPGVGGVLPGVGGVLPGVGGVLPGVGGVLPGVGGVLPGVGGVLPGVGGVLPGVGGVLPGVGGVLPGVGGVLPGVGGVLPGVGGVLPGVGGVLPGVGGVLPGVGGVLPGVGGVLPGVGGVLPGVGGVLPGVGGVLPGVGGVLPGVGGVLPGVGGVLPGVGGVLPGVGGVLPGVGGVLPGVGGVLPGVGGVLPGVGGVLPGVGGVLPGVGGVLPGVGGVLPGVGGVLPGVGGVLPGVGGVLPGVGGVLPGVGGVLPGVGGVLPGVGGVLPGVGGVLPGVGGVLPGVGGVLPGVGGVLPGVGGVLPGVGGVLPGVGGVLPGVGGVLPGVGGVLPGVGGVLPGVGGVLPGVGGVLPGVGGVLPGVGGVLPGVGGVLPGVGGVLPGVGGVLPGVGGVLPGVGGVLPGVGGVLPGVGGVLPGVGGVLPGVGGVLPGVGGGGGSTTYKLVINGKTLKGETTTKAVDAETAEKAFKQYANDNGVDGVWTYDDATKTFTVTE
# B2: iTEP56-IBD (designed binder)
# chain: GVLPGVGGVLPGVGGVLPGVGGVLPGVGGVLPGVGGVLPGVGGVLPGVGGVLPGVGGVLPGVGGVLPGVGGVLPGVGGVLPGVGGVLPGVGGVLPGVGGVLPGVGGVLPGVGGVLPGVGGVLPGVGGVLPGVGGVLPGVGGVLPGVGGVLPGVGGVLPGVGGVLPGVGGVLPGVGGVLPGVGGVLPGVGGVLPGVGGVLPGVGGVLPGVGGVLPGVGGVLPGVGGVLPGVGGVLPGVGGVLPGVGGVLPGVGGVLPGVGGVLPGVGGVLPGVGGVLPGVGGVLPGVGGVLPGVGGVLPGVGGVLPGVGGVLPGVGGVLPGVGGVLPGVGGVLPGVGGVLPGVGGVLPGVGGVLPGVGGVLPGVGGVLPGVGGVLPGVGGVLPGVGGVLPGVGGVLPGVGGGGGSTTYKLVINGKTLKGETTTKAVDAETAEKAFKQYANDNGVDGVWTYDDATKTFTVTE
# B3: iTEP28-IBD (designed binder)
# chain: GVLPGVGGVLPGVGGVLPGVGGVLPGVGGVLPGVGGVLPGVGGVLPGVGGVLPGVGGVLPGVGGVLPGVGGVLPGVGGVLPGVGGVLPGVGGVLPGVGGVLPGVGGVLPGVGGVLPGVGGVLPGVGGVLPGVGGVLPGVGGVLPGVGGVLPGVGGVLPGVGGVLPGVGGVLPGVGGVLPGVGGVLPGVGGVLPGVGGGGGSTTYKLVINGKTLKGETTTKAVDAETAEKAFKQYANDNGVDGVWTYDDATKTFTVTE
# Target: Human IgG (polyclonal, Innovative Research) (human)
# Experiment: depot trapping: polypeptide mixed with fluorescein-labeled human IgG (1 mg/mL), 37 °C, centrifuged, pellet fluorescence; molar ratio 8 or higher
row,percent of IgG in depots [%],Binder
1,90,B1
2,90,B2
3,55,B3
